Experimental data from PMC6609874, “MeABL5, an ABA Insensitive 5-Like Basic Leucine Zipper Transcription Factor, Positively Regulates MeCWINV3 in Cassava (Manihot esculenta Crantz)”.

B1: pMeCWINV3-WT 60 bp (dsDNA)
DNA 1: ATCGTTGACATGTGAGTATTTGACGTATCCACGTGGGAAAGGGAAGAAAAACAACATTGA
DNA 2: TCAATGTTGTTTTTCTTCCCTTTCCCACGTGGATACGTCAAATACTCACATGTCAACGAT
B2: pMeCWINV3-MT 54 bp (CACGTG deleted) (dsDNA)
DNA 1: ATCGTTGACATGTGAGTATTTGACGTATCGGAAAGGGAAGAAAAACAACATTGA
DNA 2: TCAATGTTGTTTTTCTTCCCTTTCCGATACGTCAAATACTCACATGTCAACGAT

Target: T1, MeABL5 (Manihot esculenta Crantz, UniProt A0A411G151)
T1 sequence: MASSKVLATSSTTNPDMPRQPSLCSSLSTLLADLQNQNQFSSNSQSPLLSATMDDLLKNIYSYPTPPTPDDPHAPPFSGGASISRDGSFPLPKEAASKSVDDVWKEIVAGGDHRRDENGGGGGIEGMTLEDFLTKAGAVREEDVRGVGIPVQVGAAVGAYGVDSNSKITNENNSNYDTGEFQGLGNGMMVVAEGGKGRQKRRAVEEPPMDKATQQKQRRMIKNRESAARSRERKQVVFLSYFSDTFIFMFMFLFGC
Experiment: EMSA; 250 ng protein, 500 ng DNA; EMSA kit (Invitrogen), room temperature 30 min, 500 ng DNA, 0-250 ng protein, PAGE with SYBR Green/SYPRO Ruby stain; buffer, salt and pH not stated
Conditions: protein: recombinant; tags: MBP (pET28a-MBP) removed by TEV protease; Ni column purified; chain copies: 2; label: none (SYBR Green stain); annealed duplex

Binder	binding result
B1	binds
B2	no binding
